The values that follow are results of earlier work, collected in article PMC7248048.

Data set [1] concerns the target Fibronectin (Homo sapiens) (UniProt P02751).
In data set [2] the target is Vitronectin (Homo sapiens) (UniProt P04004).
UniProt P04004, sequence (P04004 399-478): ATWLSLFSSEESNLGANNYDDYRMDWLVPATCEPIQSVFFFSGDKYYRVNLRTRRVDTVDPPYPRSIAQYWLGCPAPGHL

UniProt P02751, sequence (P02751 32-2477): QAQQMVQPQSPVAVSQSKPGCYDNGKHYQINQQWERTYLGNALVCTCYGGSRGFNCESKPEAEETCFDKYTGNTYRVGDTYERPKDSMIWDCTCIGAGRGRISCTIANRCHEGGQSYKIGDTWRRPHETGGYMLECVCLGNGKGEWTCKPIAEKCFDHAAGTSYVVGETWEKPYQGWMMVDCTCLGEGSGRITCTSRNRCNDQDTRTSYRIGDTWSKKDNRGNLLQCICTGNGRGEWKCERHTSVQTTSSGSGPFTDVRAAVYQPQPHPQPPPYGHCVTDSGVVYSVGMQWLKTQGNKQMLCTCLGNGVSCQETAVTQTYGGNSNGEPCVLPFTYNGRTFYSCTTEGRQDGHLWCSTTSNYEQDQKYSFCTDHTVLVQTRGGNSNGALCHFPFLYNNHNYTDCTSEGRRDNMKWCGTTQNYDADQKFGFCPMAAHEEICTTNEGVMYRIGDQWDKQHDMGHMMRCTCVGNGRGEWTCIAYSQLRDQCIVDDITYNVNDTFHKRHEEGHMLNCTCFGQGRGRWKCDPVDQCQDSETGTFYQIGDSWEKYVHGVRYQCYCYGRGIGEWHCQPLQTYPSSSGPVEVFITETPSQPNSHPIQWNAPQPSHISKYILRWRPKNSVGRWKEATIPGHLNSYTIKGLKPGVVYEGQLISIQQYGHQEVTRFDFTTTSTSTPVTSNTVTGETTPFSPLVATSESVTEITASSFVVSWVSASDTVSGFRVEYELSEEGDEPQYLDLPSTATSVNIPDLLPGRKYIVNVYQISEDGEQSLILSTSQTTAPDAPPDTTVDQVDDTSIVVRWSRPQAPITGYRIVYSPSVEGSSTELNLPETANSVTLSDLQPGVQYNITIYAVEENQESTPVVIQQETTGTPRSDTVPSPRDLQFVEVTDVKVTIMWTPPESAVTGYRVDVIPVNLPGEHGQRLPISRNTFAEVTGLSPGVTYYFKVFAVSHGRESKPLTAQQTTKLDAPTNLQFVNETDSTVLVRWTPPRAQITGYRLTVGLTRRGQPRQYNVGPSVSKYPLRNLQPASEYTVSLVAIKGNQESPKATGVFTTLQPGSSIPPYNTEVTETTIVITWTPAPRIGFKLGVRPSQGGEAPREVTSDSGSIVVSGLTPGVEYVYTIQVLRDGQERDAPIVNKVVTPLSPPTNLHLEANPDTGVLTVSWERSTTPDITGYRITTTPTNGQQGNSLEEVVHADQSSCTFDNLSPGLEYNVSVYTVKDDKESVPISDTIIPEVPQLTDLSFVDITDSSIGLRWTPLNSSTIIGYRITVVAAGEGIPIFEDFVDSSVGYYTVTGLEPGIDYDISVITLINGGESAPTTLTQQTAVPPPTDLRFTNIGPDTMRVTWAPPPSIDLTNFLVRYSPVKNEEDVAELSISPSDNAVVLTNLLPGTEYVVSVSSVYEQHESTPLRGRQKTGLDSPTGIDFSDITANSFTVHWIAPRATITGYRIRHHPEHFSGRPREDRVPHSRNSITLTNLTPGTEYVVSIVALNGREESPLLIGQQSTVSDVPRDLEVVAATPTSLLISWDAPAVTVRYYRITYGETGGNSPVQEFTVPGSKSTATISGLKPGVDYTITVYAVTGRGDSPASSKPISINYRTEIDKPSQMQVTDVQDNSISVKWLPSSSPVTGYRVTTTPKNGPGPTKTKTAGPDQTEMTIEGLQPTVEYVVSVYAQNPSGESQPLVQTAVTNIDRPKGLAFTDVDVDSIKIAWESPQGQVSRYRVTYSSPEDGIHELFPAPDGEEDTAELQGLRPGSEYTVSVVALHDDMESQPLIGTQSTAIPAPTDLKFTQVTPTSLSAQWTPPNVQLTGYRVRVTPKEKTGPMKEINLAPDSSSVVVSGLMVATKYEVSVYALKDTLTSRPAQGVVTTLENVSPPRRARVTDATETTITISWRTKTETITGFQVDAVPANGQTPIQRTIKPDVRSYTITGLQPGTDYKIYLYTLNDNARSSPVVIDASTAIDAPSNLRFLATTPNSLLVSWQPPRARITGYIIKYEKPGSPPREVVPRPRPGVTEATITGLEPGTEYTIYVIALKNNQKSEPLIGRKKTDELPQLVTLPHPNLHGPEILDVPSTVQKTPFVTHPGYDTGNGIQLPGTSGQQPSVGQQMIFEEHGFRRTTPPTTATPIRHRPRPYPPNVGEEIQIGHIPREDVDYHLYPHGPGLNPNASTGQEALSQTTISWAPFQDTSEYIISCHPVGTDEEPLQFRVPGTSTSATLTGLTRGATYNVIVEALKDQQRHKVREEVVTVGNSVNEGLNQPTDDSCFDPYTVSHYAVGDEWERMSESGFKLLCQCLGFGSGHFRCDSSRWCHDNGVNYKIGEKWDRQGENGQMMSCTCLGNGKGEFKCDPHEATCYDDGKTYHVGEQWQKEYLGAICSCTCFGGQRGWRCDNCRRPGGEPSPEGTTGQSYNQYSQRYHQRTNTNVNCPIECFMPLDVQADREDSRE

Regarding “Haemophilus lipoprotein e (P4) (from UniProt P26093)”, the Kd in data set [1] was 0.0102 µM; in data set [2], 0.0165 µM.
